{
  "source": "paper PMC3874162",
  "about": "(Nucleic Acids Research, 2013)",
  "key": {"Cdc13-L91R": {"target": "T1, Cdc13-L91R (Saccharomyces cerevisiae, UniProt P32797 1-924, L91R)", "T1 sequence": "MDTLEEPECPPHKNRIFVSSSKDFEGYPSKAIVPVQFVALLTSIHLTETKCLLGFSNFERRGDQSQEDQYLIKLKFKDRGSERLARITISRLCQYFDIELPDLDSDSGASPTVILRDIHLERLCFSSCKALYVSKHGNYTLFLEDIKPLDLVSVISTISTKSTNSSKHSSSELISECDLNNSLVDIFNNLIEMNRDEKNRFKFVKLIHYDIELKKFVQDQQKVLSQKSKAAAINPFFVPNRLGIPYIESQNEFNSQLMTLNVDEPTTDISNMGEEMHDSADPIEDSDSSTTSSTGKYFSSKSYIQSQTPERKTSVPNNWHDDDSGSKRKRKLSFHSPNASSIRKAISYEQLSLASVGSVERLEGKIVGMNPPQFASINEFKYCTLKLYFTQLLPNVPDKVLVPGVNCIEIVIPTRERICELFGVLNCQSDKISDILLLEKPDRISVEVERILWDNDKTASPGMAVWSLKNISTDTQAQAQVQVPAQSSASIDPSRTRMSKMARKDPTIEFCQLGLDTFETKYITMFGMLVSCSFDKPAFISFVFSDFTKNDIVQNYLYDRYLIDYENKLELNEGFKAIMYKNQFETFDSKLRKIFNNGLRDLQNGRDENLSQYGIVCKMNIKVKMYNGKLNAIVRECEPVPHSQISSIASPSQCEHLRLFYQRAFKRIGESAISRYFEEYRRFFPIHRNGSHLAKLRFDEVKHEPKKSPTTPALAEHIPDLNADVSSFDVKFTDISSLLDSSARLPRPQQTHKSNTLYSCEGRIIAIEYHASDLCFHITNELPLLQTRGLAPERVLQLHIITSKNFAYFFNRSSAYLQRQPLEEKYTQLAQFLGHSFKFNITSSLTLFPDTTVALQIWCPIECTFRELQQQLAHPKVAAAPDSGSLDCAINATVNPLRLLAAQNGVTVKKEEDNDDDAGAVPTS", "assay": "EMSA"}, "Cdc13-F539A": {"target": "T2, Cdc13-F539A (Saccharomyces cerevisiae, UniProt P32797 1-924, F539A)", "T2 sequence": "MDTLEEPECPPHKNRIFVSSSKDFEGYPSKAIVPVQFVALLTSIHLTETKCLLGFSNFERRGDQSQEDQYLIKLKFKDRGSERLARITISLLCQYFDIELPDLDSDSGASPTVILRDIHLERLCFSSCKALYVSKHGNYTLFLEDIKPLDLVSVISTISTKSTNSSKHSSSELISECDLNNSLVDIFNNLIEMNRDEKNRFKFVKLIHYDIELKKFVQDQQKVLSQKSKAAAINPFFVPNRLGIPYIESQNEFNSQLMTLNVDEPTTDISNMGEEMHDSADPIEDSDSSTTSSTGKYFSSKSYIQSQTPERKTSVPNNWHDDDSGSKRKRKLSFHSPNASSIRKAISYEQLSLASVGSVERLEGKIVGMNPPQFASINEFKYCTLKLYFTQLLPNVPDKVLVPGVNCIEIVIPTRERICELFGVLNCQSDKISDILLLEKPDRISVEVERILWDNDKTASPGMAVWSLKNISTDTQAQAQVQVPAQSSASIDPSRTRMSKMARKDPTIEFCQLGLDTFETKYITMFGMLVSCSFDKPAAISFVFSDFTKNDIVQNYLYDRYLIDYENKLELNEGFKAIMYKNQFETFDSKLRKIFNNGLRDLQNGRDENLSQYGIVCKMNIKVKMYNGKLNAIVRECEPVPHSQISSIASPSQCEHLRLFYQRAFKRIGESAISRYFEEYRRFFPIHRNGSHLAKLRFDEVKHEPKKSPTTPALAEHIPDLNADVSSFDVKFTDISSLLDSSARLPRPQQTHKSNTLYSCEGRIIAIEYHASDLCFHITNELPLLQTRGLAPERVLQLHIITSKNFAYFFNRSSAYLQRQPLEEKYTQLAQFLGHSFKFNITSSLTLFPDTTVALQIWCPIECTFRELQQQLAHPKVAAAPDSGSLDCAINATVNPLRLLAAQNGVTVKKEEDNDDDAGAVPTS", "assay": "EMSA"}},
  "data": [
    {"binder": "GTGTGGGTGTG (ssDNA)", "note": "[Tel11]", "values": [
      {"measurement": "Kd", "setting": "Cdc13-L91R", "value": "5 ± 0.6", "unit": "pM"},
      {"measurement": "Kd", "setting": "Cdc13-F539A", "value": "140 ± 20", "unit": "pM"}
    ]}
  ]
}
